The target of experiment [1] is T1, extracellular domain of p95HER2 peptide with a polyhistidine-tag in the C-terminus.
T1 construct: Used as analyte in SPR
Kind of experiment: SPR (Biacore T200, 25° C.), antibody immobilized on CM5 chip, peptide as analyte 0.6 to 2500 nM, 1:1 model. On the procedure: SPR was performed as described previously in Gomes & Andreu, Journal of Immunological Methods 259:217-230, 2002. […] The extracellular domain of p95HER2 peptide with a polyhistidine-tag in the C-terminus (SEQ ID NO: 19) was used as analyte with serial dilutions from 0.6 to 2500 nM. […] (SEQ ID NO: 19)
Kinetics of molecular interaction were processed by global curve fitting to the 1:1 bimolecular interaction model. Biacore T200 (GE Healthcare) was used to perform the experiment and all procedures were conducted at 25° C.

Experiment [2] has as its target T2, Peptide 7 of Table 3 (15mer of the p95HER2 extracellular domain).
T2 construct: Synthetic peptide immobilized on a cellulose membrane
T2 peptide: VDLDDKGCPAEQRAS
Description: peptide array on cellulose membrane, overlapping 15mers, signal intensity (area under curve), triplicate spots.

In experiment [3] the target is T3, Peptide 5 of Table 3 (peptide of the p95HER2 extracellular domain).
T3 construct: Synthetic peptide immobilized on a cellulose membrane
T3 peptide: INCTHSCVDLDDKG
Described as above.

Experiment [4] has as its target T4, Peptide 3 of Table 3 (15mer of the p95HER2 extracellular domain).
T4 construct: Synthetic peptide immobilized on a cellulose membrane
T4 peptide: EEGACQPCPINCTHS
The description is as above.

Experiment [5] addresses T5, Peptide 4 of Table 3 (15mer of the p95HER2 extracellular domain).
T5 construct: Synthetic peptide immobilized on a cellulose membrane
T5 peptide: CQPCPINCTHSCVDL
Described as above.

In experiment [6] the target is T6, Peptide 6 of Table 3 (15mer of the p95HER2 extracellular domain).
T6 construct: Synthetic peptide immobilized on a cellulose membrane
T6 peptide: THSCVDLDDKGCPAE
Described as above.

Experiment [7] concerns the target T7, Peptide 2 of Table 3 (15mer of the p95HER2 extracellular domain).
T7 construct: Synthetic peptide immobilized on a cellulose membrane; also called KFPDEEGACQPCPIN
T7 peptide: KFPDEEGACQPCPIN
The experiment is described as above.

Experiment [8] concerns the target T8, Peptide 1 of Table 3 (15mer of the p95HER2 extracellular domain).
T8 construct: Synthetic peptide immobilized on a cellulose membrane
T8 peptide: MPIWKFPDEEGACQP
The description is as above.

Experiment [9] deals with T9, Peptide 8 of Table 3 (15mer of the p95HER2 extracellular domain).
T9 construct: Synthetic peptide immobilized on a cellulose membrane
T9 peptide: DDKGCPAEQRASPLT
The description is as above.

The target in the next experiment is T10, peptide 9 (FIGURE 3 d/e).
T10 peptide: MPIWKFPDEEGA
Kind of experiment: peptide array on cellulose membrane, truncation series, signal intensity (area under curve), duplicate spots.

Another experiment concerns the target T11, peptide 4 (FIGURE 3 d/e).
T11 peptide: PDLSYMPIWKFPDEEGA
The experiment is described as above.

The target of experiment [10] is T12, Peptide 1 of Table 4 (HER2 glycine-603 to alanine-622).
T12 construct: Parent peptide of the N-terminal truncation and double-alanine substitution series
T12 peptide: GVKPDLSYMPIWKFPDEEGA
Described as above.

The target of a further experiment is T13, peptide 3 (FIGURE 3 d/e).
T13 peptide: KPDLSYMPIWKFPDEEGA
The description is as above.

The target of experiment [11] is T14, Peptide 11 of Table 4 (N-terminal truncation, proline-612 lost).
T14 peptide: IWKFPDEEGA
The description is as above.

For experiment [12], the target named is T15, Peptide 13 of Table 4 (N-terminal truncation, tryptophan-614 lost).
T15 peptide: KFPDEEGA
Described as above.

The target in experiment [13] is T16, peptide 14 (FIGURE 3 d/e).
T16 construct: also called FPDEEGA
T16 peptide: FPDEEGA
The description is as above.

Experiment [14] deals with T17, Peptide 12 of Table 4 (N-terminal truncation, isoleucine-613 lost).
T17 peptide: WKFPDEEGA
The description is as above.

Experiment [15] concerns the target T18, peptide 17 (FIGURE 3 d/e).
T18 construct: also called EEGA
T18 peptide: EEGA
Described as above.

The target of experiment [16] is T19, peptide 16 (FIGURE 3 d/e).
T19 construct: also called DEEGA
T19 peptide: DEEGA
Described as above.

In another experiment the target is T20, peptide 8 (FIGURE 3 d/e).
T20 peptide: YMPIWKFPDEEGA
The description is as above.

The next experiment concerns the target T21, peptide 7 (FIGURE 3 d/e).
T21 peptide: SYMPIWKFPDEEGA
The experiment is described as above.

Experiment [17] has as its target T22, Peptide 10 of Table 4 (N-terminal truncation, methionine-611 lost).
T22 peptide: PIWKFPDEEGA
The experiment is described as above.

The target of the next experiment is T23, peptide 5 (FIGURE 3 d/e).
T23 peptide: DLSYMPIWKFPDEEGA
Described as above.

These results are taken from US20240398949A1 (OSLO UNIVERSITETSSYKEHUS HF, published 2024).

B1: Oslo-2 antibody (monoclonal antibody against p95HER2) (antibody, V domains shown)
VH: EVQILETGGGLVKPGGSLRLSCATSGFNFNDYFMNWVRQAPGKGLEWIAQIRNKNYNYATYFAESLEGRFTISRDDSKSSVYLQVNSLRAEDTALYYCTELRYDYWGQGVMVTVSS
VL: DIVMTQSPFSLAVSEGEMVTINCKSSQSLLSSGNQKNNLAWYQQKPGQSPKLLIYYASTRQSGVPDRFIGSGSGTDFTLTISDVQAEDLADYYCLQHYSSPYTFGAGTKLELK
notes: Monoclonal antibody from a rat hybridoma (mClone 1), detected with goat anti-rat-PE; also called the antibody of interest; the antibody
As for B1, binding in experiment [1] was characterised by a dissociation constant (Kd) of 2 nM. The binding result in [2], in [3], in experiment [4], in [5], in experiment [6] and in [7] was “no binding” throughout. The binding result in [8] is on record as “binds”; in [9], “no binding”; in the experiment with peptide 9 (FIGURE 3 d/e), “binds”; with peptide 4 (FIGURE 3 d/e), “binds”; in [10], “binds”; in the experiment with peptide 3 (FIGURE 3 d/e), “binds”. For the same molecule, the binding result in experiment [11] is “binds”; in experiment [12] it was “no binding”; in experiment [13], “no binding”; in experiment [14], “binds”; in [15] it was “no binding”; in experiment [16] it was “no binding”. For the same molecule, the binding result (in the experiment with peptide 8 (FIGURE 3 d/e); with peptide 7 (FIGURE 3 d/e); in [17]; with peptide 5 (FIGURE 3 d/e)) was “binds” each time.

Broadly, the Kd is the constant that tells how readily two partners part at equilibrium. A low value points to higher affinity.
